Earlier results on two substances are cited in publication PMC5722893.

The target of data set [1] is TSLPR (Homo sapiens) (UniProt Q9HC73).
In data set [2] the target is TSLP:TSLPR complex (Homo sapiens) (UniProt Q969D9).

Sequence of UniProt Q9HC73 (Q9HC73 23-231): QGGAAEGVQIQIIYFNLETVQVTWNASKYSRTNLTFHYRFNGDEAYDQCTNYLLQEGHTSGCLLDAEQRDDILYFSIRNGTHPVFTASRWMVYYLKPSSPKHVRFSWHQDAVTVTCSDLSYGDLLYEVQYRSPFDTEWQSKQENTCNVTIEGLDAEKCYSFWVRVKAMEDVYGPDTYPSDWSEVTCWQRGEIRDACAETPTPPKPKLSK

As to TSLP (from UniProt Q969D9), in data set [1], the dissociation constant Kd was 0.032 µM.

Take IL-7Ralpha (from UniProt P16871): in data set [2], the Kd was 0.029 µM.

Usually Kd stands for a measure of binding affinity in units of concentration.
